This is an account of results in patent US20250051407A1, “De novo designed sequence-specific DNA binding proteins” (University of Washington, priority 2023, published 2025).

The subject of data set [1] is DBP48-TetR (synthetic construct). As to the kind of experiment: cell_activity. Conditions: E. coli YFP NOT gate, 1 mM IPTG.
Data set [2] has as its system DBP57-TetR (synthetic construct). Description: cell_activity. The settings on record: E. coli YFP NOT gate, 1 mM IPTG.
Another data set concerns 13 unique dsDNA targets. As to the kind of experiment: All-by-all yeast surface display screen of DBP design hits. It counts as binding. A digest of the protocol:
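EBY100 yeast displaying designs were induced 16–24 h at 30°C, then labelled with biotinylated dsDNA either with avidity (SAPE premixed at one-quarter of target concentration) or without (target, then SAPE/FITC). Competition ran without avidity at 1 μM biotinylated duplex plus 8 μM unlabelled competitor. Flow cytometry read-out is the SAPE/FITC ratio over gated expressing cells.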

The subject of data set [3] is synTF-specific cis-regulatory elements (CRE) in HEK293T cells. As to the kind of experiment: Transcriptional activation by synTFs in HEK293T cells (ENGRAM). The settings on record: DBP fused to GCN4 dimerization domain and VP64; HEK293T cells expressing PEmax; dependent on spacing between motifs. It counts as cell-based. The text has this:
Next, we investigated whether the DBPs can be used as activators in mammalian cells. A set of synthetic transcription factors (synTFs) were created by fusing the GCN4 dimerization domain and the VP64 activation domain to the C-termini of DBPs 9, 35opt, 48, 57, and 60 which recognize 3 unique motifs. The dimerization domain allows the DBPs to recognize a palindromic target sequence consisting of two binding motifs, improving the binding affinity to the DNA sequence (FIG. 2C). We created synTF specific cis-regulatory elements (CRE) with 4 repeats spaced by 6 bp to drive the expression of downstream genes, and used the ENGRAM (43) recording technology to measure the activity of the synTFs in HEK293 cells. In ENGRAM, each CRE drives the expression of a uniquely barcoded pegRNA, which upon expression is recorded into the DNA TAPE at the HEK3 locus by prime-editor (PEmax); the activity of individual synTFs can be measured as the abundance of the barcode on the DNA TAPE (FIG. 2C). We first tested 3 different spacings-1 bp, 3 bp, and 5 bp-between the palindromic binding motifs to maximize the recorder activity. 3 synTF specific recorders and 1 TCF-LEF-recorder (negative control) were mixed with ratio 2:2:2:1 and co-transfected with synTFs into the HEK293T cells expressing PEmax. Cells were harvested and analyzed 2 days post-transfection. After analyzing the barcode abundance on the DNA TAPE, we observed 3-5 fold activation for DBP9/DBP35 and DBP57/DBP60 (FIG. 2D).
HEK293T cells expressing PEmax™ were cultured in DMEM High glucose (GIBCO), supplemented with 10% Fetal Bovine Serum (Rocky Mountain Biologicals) and 1% penicillin-streptomycin (GIBCO). Cells were grown with 5% CO2 at 37° C. 1×10^5 cells were seeded on a 48-well plate a day before transfection. Enhancer plasmid and binder plasmid were mixed with a ratio of 2:1. Enhancer variants and background control were mixed with a ratio of 2:2:2:1. A total of 300 ng of plasmid were transfected using Lipofectamine™ 3000 (ThermoFisher, L3000015), following the manufacturer's protocol. Cells were harvested 2 days post-transfection. Genomic DNA was extracted based on the protocol described earlier (43). Briefly, cells were lysed using freshly prepared lysis buffer (10 mM Tris-HCl, pH 7.5; 0.05% SDS; 25 µg/ml protease (ThermoFisher)) for each well. The genomic DNA mixture was incubated at 50° C. for 1 h, followed by an 80° C. enzyme inactivation step for 30 min. The DNA TAPE was amplified from the genomic DNA directly for next generation sequencing. Recorded information was extracted via custom analysis code. Each enhancer has a unique barcode representing its activity. Transcription activation was measured as the fold change in the barcode abundance relative to the negative control barcode. All measurements were performed in triplicates.

In data set [4] the test system is synthetic promoter containing the designed DBP binding sites controlling YFP. As to the kind of experiment: Transcriptional repression assay (NOT gate, YFP) in E. coli. Type of data set: cell-based, Escherichia coli. The settings on record: IPTG induction (1 mM), flow cytometry. An excerpt:
We next tested the ability of the designed DBPs to function in cells to regulate transcription. We constructed candidate NOT gates (38) to assay transcriptional repression in Escherichia coli, where the input is a designed DBP under control of the IPTG-inducible PTac promoter and the output is yellow fluorescent protein (YFP) expression driven by a promoter incorporating each DBP's DNA binding site. […] To increase avidity and bulk, we fused the DBPs to the homodimerization domain of the TetR protein (39), using RFdiffusion (40) and ProteinMPNN sequence design to generate rigid linkers that orient the DBP domain of each dimer unit on a DNA target containing two palindromic binding sites. For DBPs 48, 69, and 57, we selected 96 TetR fusions for experimental characterization in the NOT gate circuit. Upon initial screening, we observed modest repression for several designs and selected two for further validation (one incorporating DBP48, the other DBP57) (FIG. 8). […]

For data set [5], the system named is biotinylated target dsDNA with non-biotinylated competitor dsDNA. Description: Yeast display competition assay with base-substituted competitor dsDNA. Type of data set: binding. An excerpt:
We used a yeast display competition assay to characterize the DNA binding site specificity of a subset of the designs (FIG. 1A-E, left; FIG. 5). Addition of non-biotinylated competitor dsDNA to biotinylated target sequence reduced binding signal by flow cytometry (FIG. 1A-E, middle). […] For example, in DBP6 (FIG. 1A) R31 and R36 in the design model form bidentate hydrogen bonds with the guanines of base pair positions G12 and C9, respectively, while T32 forms a hydrogen bond with C10.
For yeast display characterization of individual designs, including competition assays, DNA sequences encoding the proteins of interest were purchased as Integrated DNA Technologies (IDT) E-Blocks™, transformed into yeast cells, and incubated in 96 well culture plates. Labeling with biotinylated dsDNA targets and SAPE/FITC was performed in a 96 well plate format. For yeast display competition assays, labeling was performed without avidity using 1 μM biotinylated dsDNA duplex oligos and an excess of 8 μM non-biotinylated competitor dsDNA duplex oligos. […] Flow cytometry analysis was performed with an Attune NxT™ flow cytometer with autosampler. Flow cytometry data analysis was performed using custom python code and the CytoFlow™ python package. For each individual sample, gating of the expression population was performed using the CytoFlow™ Gaussian Mixture Model and the ratio of SAPE channel intensity to FITC channel intensity (binding signal/expression signal) was calculated for all gated expression events of the sample.

Data set [6] deals with biotinylated dsDNA oligo (designed DNA target). Description: Clonal yeast surface display binding to biotinylated dsDNA oligo. The text has this:
For each set of designs, synthetic oligonucleotides (230 base pairs) encoding the 50-65-residue designed proteins were ordered in a single pool and cloned into a yeast surface-expression vector. Cells containing designs that bound each DNA target were enriched by several rounds of fluorescence-activated cell sorting (FACS) using fluorescently labeled target dsDNA oligos. The naive and sorted populations for each DNA target were deep sequenced, and the frequency of each design in the starting population and after each sort was determined. From this analysis, we identified 97 designs that were substantially enriched (>100×) in pools sorted with their intended dsDNA target compared to the naive library. […]
For yeast display characterization of individual designs, including competition assays, DNA sequences encoding the proteins of interest were purchased as Integrated DNA Technologies (IDT) E-Blocks™, transformed into yeast cells, and incubated in 96 well culture plates. […] For each individual sample, gating of the expression population was performed using the CytoFlow™ Gaussian Mixture Model and the ratio of SAPE channel intensity to FITC channel intensity (binding signal/expression signal) was calculated for all gated expression events of the sample.

For the molecule “GGCGTCAGGTGGACGCAGATTGACAGCGTCAGGTGGACGCTTATAATGAGCACTTCC (double strand) [PDBP48 synthetic promoter]”, in data set [1], the activity (fold repression) was 3.4.

In data set [2], “TCTGGATAGTGTATCCAGATTGACATCTGGAAGTATATCCAGATAATGAGCACTTCC (double strand) [PDBP57 synthetic promoter]” returned an activity (fold repression) of 8.1.

B1: DBP57: designed DNA-binding protein, SEQ ID NO: 31, DNA target E (protein)
chain: MVLTPMERIGEFIKRARREAGLTQRELAELAGVGQSTVSRIEKGEKCSPELVEKILEALRKV
Regarding B1, in the data set with 13 unique dsDNA targets (1 μM dsDNA with avidity, including designed target sequence), the “Number of the 13 tested DNA target sequences preferentially bound” value was “less than 3”. Further, the “Binding specificity versus design models” value in the data set on 13 unique dsDNA targets (all-by-all screen with Rosetta-predicted motifs) was “bound with specificity closely consistent with the design models”. In addition, in the data set on 13 unique dsDNA targets (yeast surface display, 1 μM dsDNA with avidity), the “Binding to initial design target” value was “bound strongly”. Besides, in the data set with 13 unique dsDNA targets (yeast surface display, 1 μM dsDNA with avidity, alternate target H (DBP90), D (DBP48), C (DBP57)), the “Binding to alternate target sequence” value is “bound strongly”. The “Fold activation of synTFs measured as normalized barcode abundance in the DNA TAPE” value in data set [3] was 3-5 fold. The “Fold repression of YFP by single DBP domains and tandem linked DBP domains” value in data set [4] was “not observed”.

B2: DBP35opt: optimized DBP35 combining R33N, K18V and P42Q; sequence matches Table 1 row SEQ ID NO: 50, DNA target B (protein)
chain: GFGRAVKEKRKELGLTQVEFAEKAGLSRRTIINIERGYIVPQKATKEKIAKALGTSVEELEQA
Take B2: the “Number of base positions of specificity” value in data set [5] worked out at 7 base positions. Besides, the Off-target binding entry in the data set on 13 unique dsDNA targets (yeast display screen against the 13 DNA targets, versus original DBP35) is on record as “strongly decreased off-target binding”. For the same molecule, the “Fold activation of synTFs measured as normalized barcode abundance in the DNA TAPE” value in data set [3] is 3-5 fold. In addition, the “Detectable binding down to (dsDNA concentration)” value in data set [6] is reported as ~150 pM.
